Test results reported in paper PMC2187783.

What was measured:
[1] = biological target: PR97 chimeric class II beta chain (beta1 domain of DP, beta2 domain of DR) (human)
[2] = biological target: RP97 chimeric class II beta chain (beta1 domain of DR, beta2 domain of DP) (human)

Row | Table II, DPa Percent: percentage of cells binding the mAb SG465 [1] [%] | Table II, DPa Percent: percentage of cells binding the mAb SG465 [2] [%] | Table II, DRa Percent: percentage of cells binding the mAb SG465 [1] [%] | Table II, DRa Percent: percentage of cells binding the mAb SG465 [2] [%] | Substance
1 | 22 | 0 |  |  | HLA-DP alpha chain (from UniProt P20036 29-260) (natural protein)
2 |  |  | 0 | 54 | HLA-DR alpha chain (from UniProt P01903 26-254) (natural protein)
